# Results reported in article PMC8408477.
# T1: GST-RhPIF8 (Rosa hybrida, UniProt A0A8K1NC13 1-452)
# T1 sequence: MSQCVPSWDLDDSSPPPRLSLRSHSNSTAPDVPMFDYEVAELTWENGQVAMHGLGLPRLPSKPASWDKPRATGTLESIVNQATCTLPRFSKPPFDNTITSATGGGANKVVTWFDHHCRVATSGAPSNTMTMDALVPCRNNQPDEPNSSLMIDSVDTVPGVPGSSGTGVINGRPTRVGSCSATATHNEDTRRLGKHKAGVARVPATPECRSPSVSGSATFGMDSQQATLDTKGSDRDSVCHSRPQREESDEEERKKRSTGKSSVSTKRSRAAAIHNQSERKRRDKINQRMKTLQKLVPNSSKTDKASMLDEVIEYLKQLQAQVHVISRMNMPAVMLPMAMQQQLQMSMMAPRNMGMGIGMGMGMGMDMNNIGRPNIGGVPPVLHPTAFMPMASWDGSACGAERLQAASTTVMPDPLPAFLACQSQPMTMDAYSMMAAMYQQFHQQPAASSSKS
# T2: GST-RhBBX28 (Rosa hybrida, UniProt A0A8K1NC92 1-241)
# T2 sequence: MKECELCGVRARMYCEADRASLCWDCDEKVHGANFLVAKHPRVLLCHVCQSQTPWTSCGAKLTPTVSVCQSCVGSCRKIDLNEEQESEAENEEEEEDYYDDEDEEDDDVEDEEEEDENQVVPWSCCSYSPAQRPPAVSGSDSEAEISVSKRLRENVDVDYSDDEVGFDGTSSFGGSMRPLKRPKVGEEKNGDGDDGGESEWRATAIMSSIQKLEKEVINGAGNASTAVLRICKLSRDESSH
# B1: RhBBX28 mProbe (dsDNA)
# DNA 1: GCCTAAAAAAAAACCACCATACCACAAAAAACCTGC
# DNA 2: GCAGGTTTTTTGTGGTATGGTGGTTTTTTTTTAGGC
# B2: RhBBX28 probe (dsDNA)
# DNA 1: GCCTAACACATGGCCACCATACCACCACGACCCTGC
# DNA 2: GCAGGGTCGTGGTGGTATGGTGGCCATGTGTTAGGC
# B3: RhSDH1 mProbe (dsDNA)
# DNA 1: GTCAACTCCTAAAAAATCATGAGTCTTCTATAGGAATCAAAAAAAAACATTCTGCA
# DNA 2: TGCAGAATGTTTTTTTTTGATTCCTATAGAAGACTCATGATTTTTTAGGAGTTGAC
# B4: RhSDH1 probe2 (dsDNA)
# DNA 1: AGGTTTTGCAACTAGAAACGTGTTAGAAGAATAATCACAG
# DNA 2: CTGTGATTATTCTTCTAACACGTTTCTAGTTGCAAAACCT
# B5: RhSDH1 probe (dsDNA)
# DNA 1: GTCAACTCCTCACGTTTCATGAGTCTTCTATAGGAATCAACACGTTACATTCTGCA
# DNA 2: TGCAGAATGTAACGTGTTGATTCCTATAGAAGACTCATGAAACGTGAGGAGTTGAC
# Columns and labels:
# [1] = biological target: T1, GST-RhPIF8; assay: competition
# [2] = biological target: T1, GST-RhPIF8; assay: EMSA
# [3] = biological target: T2, GST-RhBBX28; assay: competition
# [4] = biological target: T2, GST-RhBBX28; assay: EMSA
# [5] = biological target: T2, GST-RhBBX28; assay: EMSA; remark: listed apart in the source
binder,measurement,setting,value
B1,binding result,[1],no binding
B2,binding result,[2],binds
B3,binding result,[3],no binding
B4,binding result,[4],no binding
B5,binding result,[5],binds
